Data set [1] has as its target monomeric synthetic human Aβ1-42 peptide.
Data set [2] has as its target oligomeric synthetic human Aβ1-42 preparation.

B1: recombinant NIa (nuclear inclusion a) protease of Turnip mosaic virus (TuMV), purified from E. coli (protein)
chain: SNSMFRGLRDYNPISNNICHLTNVSDGASNSLYGVGFGPLILTNRHLFERNNGELVIKSRHGEFVIKNTTQLHLLPIPDRDLLLIRLPKDIPPFPQKLGFRQPEKGERICMVGSNFQTKSITSVVSETSTIMPVENSQFWKHWISTKDGQCGSPMVSTKDGKILGLHSLANFQNSINYFAAFPDDFAEKYLHTIEAHEWVKHWKYNTSAISWGSLNIQASQPSGLFKVSKLISDLDSTAVYAQ
For B1, the “reduction of monomeric Aβ level, densitometry of Western blot (6E10), 3 hrs at 25 °C, without NEM” value in data set [1] is recorded as “NIa reduced Aβ levels by 64% in the absence of NEM”. In data set [2], the “oligomeric Aβ level with NIa pre-incubated with NEM, Western blot (6E10)” value is reported as “This NIa-mediated reduction of oligomeric Aβ was significantly blocked by NEM” and the “oligomeric Aβ remaining after 3 hrs with NIa, densitometry of Western blot (6E10), relative to Aβ only” value was “only 19% of oligomeric Aβ remained”.

Source of the values: US20130108613.
